Results reported in patent US20240084259A1, “STEM CELL-DERIVED MATURE CARDIOMYOCYTES AND CARDIOVASCULAR DISEASE MODEL USING SAME” (KOREA UNIVERSITY RESEARCH AND BUSINESS FOUNDATION, priority 2019, published 2024).

B1: FGF4: fibroblast growth factor 4 (FGF4), maturation factor added to the differentiation medium (protein, UniProt P08620 31-206, looked up)
Fibroblast growth factor 4: APTAPNGTLEAELERRWESLVALSLARLPVAAQPKEAAVQSGAGDYLLGIKRLRRLYCNVGIGFHLQALPDGRIGGAHADTRDSLLELSPVERGVVSIFGVASRFFVAMSSKGKLYGSPFFTDECTFKEILLPNNYNAYESYKYPGMFIALSKNGKTKKGNRVSPTMKVTHFLPRL
B2: FGF10: FGF10, maturation factor compared at 10 ng/ml (protein, UniProt O15520 38-208, looked up)
Fibroblast growth factor 10: QALGQDMVSPEATNSSSSSFSSPSSAGRHVRSYNHLQGDVRWRKLFSFTKYFLKIEKNGKVSGTKKENCPYSILEITSVEIGVVAVKAINSNYYLAMNKKGKLYGSKEFNNDCKLKERIEENGYNTYASFNWQHNGRQMYVALNGKGAPRRGQKTRRKNTSAHFLPMVVHS

Assays:
Type in all cases: cell-based
[1] = test system: human embryonic stem cells (BG01 cell line); assay: Morphology and beating of cardiomyocytes differentiated from stem cells (optical microscope); conditions: FGFs 10 ng/ml, ascorbic acid 200 μg/ml; for day of differentiation on which beating cardiomyocytes were observed: control group 9th day; for cell morphology: treatment from 5th to 15th day of differentiation, vs control group
Protocol: In order to increase the differentiation efficiency of stem cells into cardiomyocytes and to improve differentiation by cardiomyocyte type and mature differentiation, conditions for monolayer differentiation of human embryonic stem cells (BG01 cell line) into cardiomyocytes were established.
An E8 culture medium (STEMCELL Technologies) containing a 2 μM ROCK inhibitor (thiazovivin) was added to a 6-well culture plate coated with Matrigel, and embryonic stem cells dissociated into single cells using Accutase were seeded at 2.5×10^5 cells per well. Culture was carried out for about 3 days, and the E8 culture medium was exchanged until confluence of the 6-well culture plate with the cells. When confluence of the 6-well plate with the human embryonic stem cells was achieved, CHIR99021 (Sigma-Aldrich) as a GSK-3 inhibitor was added at a concentration of 6 μM to a CDM3 culture medium (containing RPMI 1640, serum albumin and ascorbic acid as three chemically verified components, P. W. Burridge et al., Nature Methods 11:855, 2014), followed by culture for 24 hours. Then, on the 2nd day of differentiation, 5 μM IWP2 (Inhibitor of Wnt Production 2) was added to the medium, followed by culture for 2 days. After addition of 10 ng/ml FGF2, 10 ng/ml FGF4, 10 ng/ml FGF10, 200 μg/ml ascorbic acid, and 10 ng/ml FGF4+200 μg/ml ascorbic acid on the 5th day of differentiation, culture was carried out until the 15th day of differentiation while the culture medium was exchanged every 48 hours with an RPMI+B27(-Insulin) medium (FIG. 1a).

[2] = test system: human embryonic stem cells (BG01); assay: Polymerase chain reaction for cell lineage markers during differentiation into cardiomyocytes; conditions: 15th day, treated 5th to 15th day; FGFs 10 ng/ml, ascorbic acid 200 μg/ml; vs control group
From the text: (§1) In order to investigate the effect of FGF2 on differentiation by cardiomyocyte type, mature differentiation of cardiomyocytes, and differentiation of vascular smooth muscle cells, the expression of a cardiomyocyte marker (cTnT), mature cardiomyocyte marker (cTnI), ventricular cardiomyocyte marker (MLC2v), atrial cardiomyocyte markers (MLC2a, ANP), nodal cardiomyocyte markers (HCN4, TBX18), vascular smooth muscle cell markers (SMA, SM22), and vascular endothelial cell marker (CD31) in the control group and the group treated with 10 ng/ml FGF2 for 10 days from the 5th day to the 15th day during the differentiation of human embryonic stem cells (BG01) into cardiomyocytes was determined through polymerase chain reaction using primers for each cell lineage marker.
as §1, with “of FGF10” for “of FGF2”, “of the” for “of a”, “ng/ml FGF10” for “ng/ml FGF2”
as §1, with “of ascorbic acid” for “of FGF2”, “of the” for “of a”, “with 200 μg/ml ascorbic acid” for “with 10 ng/ml FGF2”
as §1, with “of FGF4” for “of FGF2”, “of the” for “of a”, “ng/ml FGF4” for “ng/ml FGF2”

[3] = test system: human embryonic stem cells (BG01); assay: Immunofluorescence staining of cardiomyocyte type markers; conditions: 10 ng/ml FGF4 or 10 ng/ml FGF4+200 μg/ml ascorbic acid
Protocol: In order to investigate the effect of treatment with FGF4 alone and co-treatment with FGF4+ascorbic acid on type-specific differentiation and mature differentiation of human embryonic stem cells into cardiomyocytes, differences in expression of the cardiomyocyte marker (cTnT), ventricular cardiomyocyte marker (MLC2v), and atrial cardiomyocyte marker (MLC2a) after treatment with 10 ng/ml FGF4 or co-treatment with 10 ng/ml FGF4+200 μg/ml ascorbic acid for 10 days from the 5th day to the 15th day during the differentiation of human embryonic stem cells (BG01) into cardiomyocytes was confirmed through immunofluorescence staining (FIG. 7).

[4] = test system: human embryonic stem cells; assay: FGF4 concentration series, polymerase chain reaction for MLC2v, MLC2a, TBX18, SMA
Protocol: In order to determine the appropriate concentration of FGF4 on the increase in gene expression of the ventricular cardiomyocyte marker (MLC2v), atrial cardiomyocyte marker (MLC2a), nodal cardiomyocyte marker (TBX18), and vascular smooth muscle cell marker (SMA) from human embryonic stem cells, after treatment with FGF4 at various concentrations for 10 days from the 5th day to the 15th day of differentiation, polymerase chain reaction was performed using primers for MLC2v, MLC2a, TBX18, and SMA.

Row | Molecule | day of differentiation on which beating cardiomyocytes were observed [1] [days] | cell morphology [1] | expression of atrial cardiomyocyte marker ANP (mRNA) [2] | expression of mature cardiomyocyte marker cTnI (mRNA) [2] | expression of nodal cardiomyocyte marker HCN4 (mRNA) [2] | expression of nodal cardiomyocyte marker TBX18 (mRNA) [2] | expression of vascular smooth muscle cell marker SM22 (mRNA) [2] | expression of vascular smooth muscle cell marker SMA (mRNA) [2] | expression of ventricular cardiomyocyte marker MLC2v (mRNA) [2] | expression of atrial cardiomyocyte marker MLC2a (mRNA) [2] | other results
1 | FGF2: FGF2, maturation factor compared at 10 ng/ml | 9 | morphological changes similar to the control group | significantly increased | no effect | significantly decreased | significantly decreased | significantly decreased | significantly decreased | no effect | – | expression of vascular endothelial cell marker CD31 (mRNA) [2]: significantly increased
2 | O=C1O[C@H]([C@@H](O)CO)C(O)=C1O [ascorbic acid, reference compound] | 9 | relatively flat morphology | significantly increased | significantly increased | significantly decreased | significantly decreased | significantly decreased | significantly decreased | significantly increased | significantly increased | expression of cardiomyocyte marker cTnT (mRNA) [2]: significantly increased
3 | B1 | 9 | formed in a thickened structure | significantly increased | significantly increased | significantly decreased | significantly decreased | significantly decreased | significantly decreased | significantly increased | significantly increased | morphology of cardiomyocytes (immunostaining) ([3]; 5th to 15th day, compared to control group): agglomerated and thickened morphology; atrial cardiomyocyte marker MLC2a (immunostaining) ([3]; control group also positive): positive reaction; expression of ventricular cardiomyocyte marker MLC2v (immunostaining) ([3]; in the thickened cells, 5th to 15th day): increased; gene expression of atrial cardiomyocyte type marker MLC2a ([4]; 5 ng/ml FGF4, 5th to 15th day): started to increase; gene expression of nodal cardiomyocyte marker TBX18 ([4]; 5 ng/ml FGF4, 5th to 15th day): significantly decreased; gene expression of vascular smooth muscle cell marker SMA ([4]; 5 ng/ml FGF4, 5th to 15th day): significantly decrease; gene expression of ventricular cardiomyocyte type marker MLC2v ([4]; 5 ng/ml FGF4, 5th to 15th day): started to increase; gene expression of atrial cardiomyocyte type marker MLC2a ([4]; 10 ng/ml FGF4, 5th to 15th day): highest; gene expression of nodal cardiomyocyte marker TBX18 ([4]; 10 ng/ml FGF4, 5th to 15th day): significantly decreased; gene expression of vascular smooth muscle cell marker SMA ([4]; 10 ng/ml FGF4, 5th to 15th day): significantly decrease; gene expression of ventricular cardiomyocyte type marker MLC2v ([4]; 10 ng/ml FGF4, 5th to 15th day): highest; gene expression of atrial cardiomyocyte type marker MLC2a ([4]; 25 ng/ml FGF4, 5th to 15th day): highest; gene expression of nodal cardiomyocyte marker TBX18 ([4]; 25 ng/ml FGF4, 5th to 15th day): significantly decreased; gene expression of vascular smooth muscle cell marker SMA ([4]; 25 ng/ml FGF4, 5th to 15th day): significantly decrease; gene expression of ventricular cardiomyocyte type marker MLC2v ([4]; 25 ng/ml FGF4, 5th to 15th day): highest; gene expression of atrial cardiomyocyte type marker MLC2a ([4]; 50 ng/ml FGF4, 5th to 15th day): observed to increase; gene expression of ventricular cardiomyocyte type marker MLC2v ([4]; 50 ng/ml FGF4, 5th to 15th day): observed to increase; gene expression of nodal cardiomyocyte marker TBX18 ([4]; 100 ng/ml FGF4, 5th to 15th day): significantly decreased
4 | B2 | 9 | morphological changes similar to the control group | – | no effect | significantly increased | significantly increased | – | significantly increased | no effect | significantly increased | –
